In publication PMC9250616 (Angiogenesis, 2022) one finds Kd data, which are given here for one molecule.

One test concerns the target Collagen VI. In words: ELISA. Background: In an ELISA, binding on a coated surface is turned into a signal by an enzyme label.
In the next test the target is Collagen I. The experiment in a line: ELISA.

Chain of Collagen VI (P12109 20-1028, chain 1 of 3): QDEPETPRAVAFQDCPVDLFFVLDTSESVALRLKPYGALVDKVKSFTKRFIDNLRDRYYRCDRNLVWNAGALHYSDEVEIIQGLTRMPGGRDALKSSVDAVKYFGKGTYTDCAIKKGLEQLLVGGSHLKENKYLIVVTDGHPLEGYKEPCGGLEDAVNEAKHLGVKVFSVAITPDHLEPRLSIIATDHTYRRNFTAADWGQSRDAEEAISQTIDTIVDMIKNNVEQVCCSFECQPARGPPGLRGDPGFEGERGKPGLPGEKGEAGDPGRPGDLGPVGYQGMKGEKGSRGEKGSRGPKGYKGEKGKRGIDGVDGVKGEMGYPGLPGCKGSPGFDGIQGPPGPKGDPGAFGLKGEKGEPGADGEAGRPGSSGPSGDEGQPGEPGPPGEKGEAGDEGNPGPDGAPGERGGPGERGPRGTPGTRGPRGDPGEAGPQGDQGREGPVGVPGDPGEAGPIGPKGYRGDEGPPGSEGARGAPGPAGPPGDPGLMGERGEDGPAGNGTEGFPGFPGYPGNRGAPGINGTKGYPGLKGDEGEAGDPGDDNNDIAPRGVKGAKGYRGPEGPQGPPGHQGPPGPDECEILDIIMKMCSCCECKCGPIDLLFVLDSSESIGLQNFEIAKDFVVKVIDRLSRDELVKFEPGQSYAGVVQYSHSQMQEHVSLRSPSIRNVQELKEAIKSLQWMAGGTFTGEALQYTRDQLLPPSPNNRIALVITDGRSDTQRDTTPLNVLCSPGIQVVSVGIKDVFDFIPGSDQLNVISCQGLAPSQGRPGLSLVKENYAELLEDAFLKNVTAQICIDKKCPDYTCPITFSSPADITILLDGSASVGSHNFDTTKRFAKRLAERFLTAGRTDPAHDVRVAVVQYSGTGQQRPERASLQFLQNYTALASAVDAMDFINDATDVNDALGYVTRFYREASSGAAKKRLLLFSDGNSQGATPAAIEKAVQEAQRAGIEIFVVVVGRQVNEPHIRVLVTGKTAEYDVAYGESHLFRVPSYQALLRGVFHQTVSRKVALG
Chain of Collagen VI (P12110 21-1019, chain 2 of 3, further chain): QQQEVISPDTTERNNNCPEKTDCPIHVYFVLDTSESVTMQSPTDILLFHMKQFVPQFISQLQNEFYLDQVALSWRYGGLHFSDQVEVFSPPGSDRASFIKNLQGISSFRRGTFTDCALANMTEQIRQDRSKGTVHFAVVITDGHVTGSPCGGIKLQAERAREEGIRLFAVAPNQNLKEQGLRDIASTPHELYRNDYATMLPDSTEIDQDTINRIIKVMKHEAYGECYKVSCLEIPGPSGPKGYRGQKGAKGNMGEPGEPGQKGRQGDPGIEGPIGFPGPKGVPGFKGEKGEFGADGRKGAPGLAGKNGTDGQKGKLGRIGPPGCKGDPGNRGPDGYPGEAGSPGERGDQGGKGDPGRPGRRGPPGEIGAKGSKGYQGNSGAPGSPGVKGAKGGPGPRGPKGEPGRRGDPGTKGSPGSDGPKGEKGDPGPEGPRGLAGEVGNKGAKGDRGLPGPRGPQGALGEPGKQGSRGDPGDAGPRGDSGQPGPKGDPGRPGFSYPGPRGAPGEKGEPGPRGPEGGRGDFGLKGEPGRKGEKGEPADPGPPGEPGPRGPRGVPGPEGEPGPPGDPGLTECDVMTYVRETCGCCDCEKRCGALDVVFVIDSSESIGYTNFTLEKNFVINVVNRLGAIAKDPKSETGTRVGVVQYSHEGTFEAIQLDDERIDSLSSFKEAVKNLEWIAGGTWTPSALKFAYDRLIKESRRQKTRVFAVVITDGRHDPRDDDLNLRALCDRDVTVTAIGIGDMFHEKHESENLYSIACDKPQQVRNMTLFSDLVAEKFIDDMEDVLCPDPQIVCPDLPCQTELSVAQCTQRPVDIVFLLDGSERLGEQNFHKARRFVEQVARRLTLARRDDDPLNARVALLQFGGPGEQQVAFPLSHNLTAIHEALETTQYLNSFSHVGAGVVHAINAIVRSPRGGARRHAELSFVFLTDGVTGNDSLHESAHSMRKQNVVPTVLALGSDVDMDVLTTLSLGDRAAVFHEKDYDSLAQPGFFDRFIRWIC
Chain of Collagen VI (P12111 26-3177, chain 3 of 3, further chain): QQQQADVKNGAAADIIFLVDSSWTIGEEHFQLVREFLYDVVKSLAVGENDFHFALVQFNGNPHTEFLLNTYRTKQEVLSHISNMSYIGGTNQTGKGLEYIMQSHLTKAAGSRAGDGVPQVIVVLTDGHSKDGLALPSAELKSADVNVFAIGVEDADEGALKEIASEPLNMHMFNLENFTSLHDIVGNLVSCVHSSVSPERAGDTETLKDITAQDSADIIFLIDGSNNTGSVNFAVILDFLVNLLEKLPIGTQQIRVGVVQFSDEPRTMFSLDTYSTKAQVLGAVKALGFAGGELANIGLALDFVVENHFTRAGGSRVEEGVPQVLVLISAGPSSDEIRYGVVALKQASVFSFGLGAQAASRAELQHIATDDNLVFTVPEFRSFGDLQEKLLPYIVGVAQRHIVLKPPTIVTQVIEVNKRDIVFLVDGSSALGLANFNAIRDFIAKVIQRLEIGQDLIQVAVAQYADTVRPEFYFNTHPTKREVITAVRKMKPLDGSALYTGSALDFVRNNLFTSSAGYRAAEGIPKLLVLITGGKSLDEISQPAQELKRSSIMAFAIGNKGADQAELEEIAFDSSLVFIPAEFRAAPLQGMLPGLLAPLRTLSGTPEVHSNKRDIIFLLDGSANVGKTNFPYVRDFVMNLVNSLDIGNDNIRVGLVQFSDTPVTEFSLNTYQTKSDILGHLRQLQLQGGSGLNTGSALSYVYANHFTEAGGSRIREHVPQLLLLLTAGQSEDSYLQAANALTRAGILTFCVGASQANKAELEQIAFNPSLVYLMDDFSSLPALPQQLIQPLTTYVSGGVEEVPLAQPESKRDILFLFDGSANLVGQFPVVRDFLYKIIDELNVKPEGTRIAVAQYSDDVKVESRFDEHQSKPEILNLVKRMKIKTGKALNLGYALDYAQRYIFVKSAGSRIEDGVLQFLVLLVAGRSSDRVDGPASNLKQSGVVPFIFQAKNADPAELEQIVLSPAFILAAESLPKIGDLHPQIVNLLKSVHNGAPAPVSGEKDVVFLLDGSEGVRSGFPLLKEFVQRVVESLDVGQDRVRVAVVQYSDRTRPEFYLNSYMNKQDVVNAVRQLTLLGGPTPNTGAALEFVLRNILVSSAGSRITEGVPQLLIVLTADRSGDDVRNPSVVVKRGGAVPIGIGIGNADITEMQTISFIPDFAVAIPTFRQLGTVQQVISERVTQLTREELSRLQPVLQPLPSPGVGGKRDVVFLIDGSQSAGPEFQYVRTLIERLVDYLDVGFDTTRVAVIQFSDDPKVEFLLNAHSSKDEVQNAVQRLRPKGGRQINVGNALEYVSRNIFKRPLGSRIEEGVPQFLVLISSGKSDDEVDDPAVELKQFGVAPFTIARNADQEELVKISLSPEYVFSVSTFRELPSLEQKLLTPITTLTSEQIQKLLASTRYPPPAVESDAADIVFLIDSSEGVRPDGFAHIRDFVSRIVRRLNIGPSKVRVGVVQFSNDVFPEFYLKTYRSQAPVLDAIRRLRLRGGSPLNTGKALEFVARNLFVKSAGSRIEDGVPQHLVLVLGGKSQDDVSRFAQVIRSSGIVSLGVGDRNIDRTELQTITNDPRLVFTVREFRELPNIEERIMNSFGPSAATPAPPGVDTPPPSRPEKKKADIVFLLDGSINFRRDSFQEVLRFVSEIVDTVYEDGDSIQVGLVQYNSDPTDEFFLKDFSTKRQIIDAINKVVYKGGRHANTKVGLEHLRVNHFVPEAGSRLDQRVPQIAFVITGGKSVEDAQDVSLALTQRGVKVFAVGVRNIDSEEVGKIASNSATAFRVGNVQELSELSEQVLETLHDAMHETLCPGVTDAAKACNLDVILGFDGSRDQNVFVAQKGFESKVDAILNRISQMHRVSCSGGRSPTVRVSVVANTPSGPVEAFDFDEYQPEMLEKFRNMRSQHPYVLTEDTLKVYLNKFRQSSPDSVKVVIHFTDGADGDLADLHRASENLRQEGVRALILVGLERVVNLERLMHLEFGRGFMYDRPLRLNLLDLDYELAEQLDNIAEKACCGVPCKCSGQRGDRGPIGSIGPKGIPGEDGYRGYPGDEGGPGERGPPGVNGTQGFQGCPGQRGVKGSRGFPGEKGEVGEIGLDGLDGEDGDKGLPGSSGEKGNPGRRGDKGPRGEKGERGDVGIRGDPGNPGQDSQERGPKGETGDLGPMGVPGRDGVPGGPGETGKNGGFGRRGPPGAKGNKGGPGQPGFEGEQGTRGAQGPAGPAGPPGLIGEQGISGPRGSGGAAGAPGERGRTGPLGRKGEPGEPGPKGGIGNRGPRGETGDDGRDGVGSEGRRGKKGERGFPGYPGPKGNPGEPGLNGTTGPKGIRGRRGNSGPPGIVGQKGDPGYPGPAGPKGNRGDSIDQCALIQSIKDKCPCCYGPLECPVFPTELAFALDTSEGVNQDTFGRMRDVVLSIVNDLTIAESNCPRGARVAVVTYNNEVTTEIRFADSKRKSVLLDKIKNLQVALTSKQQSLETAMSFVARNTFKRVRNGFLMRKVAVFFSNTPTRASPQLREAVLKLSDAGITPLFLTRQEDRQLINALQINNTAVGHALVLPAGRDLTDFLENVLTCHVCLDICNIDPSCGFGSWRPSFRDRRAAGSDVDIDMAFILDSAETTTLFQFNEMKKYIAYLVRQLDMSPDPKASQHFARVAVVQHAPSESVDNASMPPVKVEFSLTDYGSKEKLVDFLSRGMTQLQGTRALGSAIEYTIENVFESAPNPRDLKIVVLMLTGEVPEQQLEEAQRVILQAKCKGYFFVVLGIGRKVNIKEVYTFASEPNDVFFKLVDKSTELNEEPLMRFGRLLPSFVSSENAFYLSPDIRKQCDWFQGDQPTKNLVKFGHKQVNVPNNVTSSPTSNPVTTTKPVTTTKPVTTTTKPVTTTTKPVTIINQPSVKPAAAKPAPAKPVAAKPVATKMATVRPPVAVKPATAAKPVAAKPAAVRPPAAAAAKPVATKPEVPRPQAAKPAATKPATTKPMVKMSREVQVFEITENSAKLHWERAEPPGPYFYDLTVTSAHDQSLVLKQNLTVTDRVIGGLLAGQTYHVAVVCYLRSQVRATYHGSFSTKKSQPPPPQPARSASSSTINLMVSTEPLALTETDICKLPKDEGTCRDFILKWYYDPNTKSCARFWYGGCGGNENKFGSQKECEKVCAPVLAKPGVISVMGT

B1: biotinylated CMG2-AviTag construct (capillary morphogenesis gene 2, anthrax toxin receptor 2) (receptor)
chain: not shown
modifications: biotin (biotinylated CMG2-AviTag construct)
For B1, the Kd (in general, the free concentration of one partner at which half of the binding sites on the other are occupied at equilibrium, for simple one-to-one binding) in the test with Collagen VI worked out at 800 nM; in the test with Collagen I, 500 nM.
